Measurements as given in the supplement of paper PMC12042874.
± gives the uncertainty stated by the source.

Assay: amyloid nucleation score (Sup35N fusion, yeast selection) (log enrichment); library NNK2; higher = more nucleation; inactive = no reads after selection
How it was run: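 The nucleation score is a DiMSum log enrichment of output over input reads, centred on the mode score of non-aggregating sequences. Sequences under 100 input reads were excluded, and reads came from Illumina sequencing of plasmid inserts. Psi-negative yeast expressing Sup35N fused to peptides of 20 random codons were induced with 100 μM copper sulfate for 24 hours and grown 7 days at 30°C on medium lacking adenine and uracil. Random libraries had three technical output replicates.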

Substance	amyloid nucleation score
SGPSFILSWS	-0.371 ± 0.63
SGRLNVSLLGVDSFYTELCA	-0.787 ± 0.54
SGRPHDCPHWRFFRSIKGLI	-0.676 ± 0.48
SGRRLRGSKVSGWR	-1.12 ± 0.76
SGTGKVCVVLVHKTSVQRKC	1.14 ± 0.3
SGVIHSVFVWKCLITGGM	-0.711 ± 0.38
SGWSNFVLCILHTTTGMKRH	3.95 ± 0.071
SGYDFHVRMTCCIWH	9.166 ± 0.04
SGYFFPRL	-0.73 ± 1.1
SGYGAAITVNFDITEHGGM	5.06 ± 0.066
SGYSPSLFCKVFPWANELCS	-1.12 ± 1.1
SHEGGD	-0.856 ± 0.34
SHFGLDADWVEVPYYRFFRY	-0.8 ± 1
SHGAWTLFLSVIFCSAQYR	4.06 ± 0.087
SHGWGTAAVWNIAVCRRSLG	0.129 ± 0.39
SHLCQLLDDAGLTEQNNSSG	0.234 ± 0.57
SHSSMVLRLVRVWCVCRG	0.342 ± 0.4
SHSVRTMFPGGVNPRNIRGY	0.548 ± 0.64
SHSYFSYTFQILLCEAVRGG	-0.124 ± 0.76
SHSYGTER	4.64 ± 0.074
SHVTGR	0.602 ± 0.34
SHYCGLVCLELEIWLYP	1.31 ± 0.18

Substance	amyloid nucleation score
SIAKFGWTIGRLGYIHIFIL	-1.16 ± 1.1
SIDEVGTANVPHGDW	0.741 ± 0.25
SIFSIFWYV	-0.744 ± 0.5
SIGGMMVPLISLKYSY	-0.784 ± 1.1
SIGHNSSF	0.117 ± 0.49
SIIVLRLLY	0.523 ± 0.51
SIKPVLVSDFEKAV	0.661 ± 0.49
SILDVCVSVT	-0.641 ± 0.55
SILGMG	-0.555 ± 0.28
SILHSPLSVVYASNISCLF	7.169 ± 0.066
SILSIYFDPYGCRL	0.164 ± 1.1
SILSRCIRQVLFREPDVWRS	-0.32 ± 0.48
SILYVSRLTFR	0.218 ± 1.1
SISRFSFIRNTVGRD	0.637 ± 0.37
SISVAVRSCQVTVPGKCDCA	7.756 ± 0.035
SIVFFNRC	7.562 ± 0.05
SIVKLGVYHDLPA	0.721 ± 0.66
SIVSHKVITISMFVI	4.5 ± 0.077
SIYVSALDGMYSGGRDLWKR	0.601 ± 0.48
SKLVSYIDWVGSRILRYTCV	-0.801 ± 1.1
SKMPP	0.147 ± 1.1
SKQCSKILTIKRMISLTGNE	-0.542 ± 0.49

Substance	amyloid nucleation score
SLDSIFCLTENISYQGIWCR	-1.12 ± 0.28
SLDSNNSVFFVCMYSYRGCS	0.359 ± 0.32
SLEVCLIALDYGIQFLSTSA	0.099 ± 0.18
SLFLARRASTIARLFKRVYM	0.127 ± 0.63
SLFLVRKDFMFCLTSLASVR	2.07 ± 0.16
SLGALNKFPRILIVVRYRVC	inactive
SLGHGKYMVCWGWYALGFYK	-0.368 ± 0.28
SLGNVHRLL	-0.246 ± 0.79
SLHMFLVIFSYLLVANRGKS	0.246 ± 0.65
SLHRAVYMGVKEYAILTEYG	0.127 ± 0.35
SLKLLYKMKLRSGQWAHIYR	0.03 ± 0.43
SLLWFKTVSLLRYNQF	-0.363 ± 0.65
SLMCIIFLQYWNLLLTIRVT	inactive
SLMDLT	0.02 ± 0.54
SLMETGYTPSRERMMHHM	-0.095 ± 0.33
SLNDKFSLMGLICFWWWCLV	-0.184 ± 0.79
SLNKNINRYFGFWYPDSPLL	-1.22 ± 0.78
SLRDARGRSYYRFNIISVML	5.591 ± 0.033
SLRNDGFNLDPVLHALFVEL	-0.306 ± 0.63
SLSFIGQIQSIITNRLNSGV	5.876 ± 0.039
SLSGHDLNWRFI	0.32 ± 0.74
SLSLINRSVVDAWRGRDGVR	5.107 ± 0.034

Substance	amyloid nucleation score
SLSPIYDDLASVVAGTYEIK	-1.27 ± 0.75
SLTLHLSEWGAISPN	-0.347 ± 1
SLTLLGLNR	-0.22 ± 0.22
SLVENRVGISDVWKVSTLVG	0.042 ± 0.29
SLVFVFVITKT	5.526 ± 0.05
SLWKLGSLMSTFFEL	-0.758 ± 0.45
SLWVMKCDKDTKYADRSFTL	-0.632 ± 1.1
SLYFGIRYENRERCLFDLHV	2.42 ± 0.17
SLYVKFPFMSDWLSMNHRMN	-0.64 ± 0.34
SMATTE	8.377 ± 0.063
SMFFYSFNWLQFYFRVDVHW	-0.311 ± 1.1
SMFGRRVWLDCNQPAGGRFA	0.118 ± 0.22
SMMQLCV	-0.043 ± 0.54
SMNPWYIHWLI	0.003 ± 0.79
SMRSIREEAVFVLIVVLRGR	0.261 ± 0.43
SMRYNTSLRWDWVDQDAHRL	4.25 ± 0.068
SMSCTTSASYHYLIS	0.697 ± 0.47
SMSSNVRTYNQFTHL	0.716 ± 0.53
SMYNSHHSELVNWLNDYIWL	2.47 ± 0.1
SNFQYSIKGQADRLPIVLVL	-0.373 ± 1
SNGMRNCKVCEFLLRLYASY	-1.15 ± 0.55
SNKHCWWLDCKHLRIMPRCD	-0.363 ± 0.37
